Among the targets are MMP3 (human, UniProt P08254 100-477, limits assumed); MMP8 (human, UniProt P22894 101-467, limits assumed); MMP13 (human, UniProt P45452 104-471, limits assumed); MMP9 (human, UniProt P14780 107-707, limits assumed); Elastase.
Holding throughout (experiment): cell-based or functional assay
Another experiment concerns the target T1, ADAMTS5 (human, UniProt Q9UNA0 262-622, limits assumed).
T1 sequence (looked up): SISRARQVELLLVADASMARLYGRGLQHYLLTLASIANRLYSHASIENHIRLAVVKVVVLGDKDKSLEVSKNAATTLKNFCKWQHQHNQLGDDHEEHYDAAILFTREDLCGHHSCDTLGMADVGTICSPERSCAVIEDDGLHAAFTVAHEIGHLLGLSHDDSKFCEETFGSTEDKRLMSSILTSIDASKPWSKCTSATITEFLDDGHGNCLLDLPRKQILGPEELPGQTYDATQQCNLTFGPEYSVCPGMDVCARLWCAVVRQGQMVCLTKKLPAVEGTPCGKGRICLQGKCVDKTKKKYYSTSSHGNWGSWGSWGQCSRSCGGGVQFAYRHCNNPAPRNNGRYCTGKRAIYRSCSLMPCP

Another experiment concerns the target T2, MMP7 (UniProt P09237 95-267, limits assumed).
T2 sequence (looked up): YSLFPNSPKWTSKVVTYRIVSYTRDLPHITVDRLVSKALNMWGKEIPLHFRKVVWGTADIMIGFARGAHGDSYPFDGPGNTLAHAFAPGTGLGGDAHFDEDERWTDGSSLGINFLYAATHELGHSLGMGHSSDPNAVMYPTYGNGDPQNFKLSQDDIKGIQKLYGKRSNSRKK

The target of the next experiment is T3, Cathepsin G (UniProt P08311 21-244).
T3 sequence (looked up): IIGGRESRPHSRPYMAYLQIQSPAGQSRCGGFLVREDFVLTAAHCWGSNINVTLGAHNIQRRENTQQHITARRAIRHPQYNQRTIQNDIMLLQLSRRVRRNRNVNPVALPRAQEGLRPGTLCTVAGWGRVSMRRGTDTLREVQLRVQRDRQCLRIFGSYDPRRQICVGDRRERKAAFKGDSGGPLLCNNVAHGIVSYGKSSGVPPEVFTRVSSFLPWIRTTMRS

The target in another experiment is T4, ADAMTS4 (human, UniProt O75173 213-685, limits assumed).
T4 sequence (looked up): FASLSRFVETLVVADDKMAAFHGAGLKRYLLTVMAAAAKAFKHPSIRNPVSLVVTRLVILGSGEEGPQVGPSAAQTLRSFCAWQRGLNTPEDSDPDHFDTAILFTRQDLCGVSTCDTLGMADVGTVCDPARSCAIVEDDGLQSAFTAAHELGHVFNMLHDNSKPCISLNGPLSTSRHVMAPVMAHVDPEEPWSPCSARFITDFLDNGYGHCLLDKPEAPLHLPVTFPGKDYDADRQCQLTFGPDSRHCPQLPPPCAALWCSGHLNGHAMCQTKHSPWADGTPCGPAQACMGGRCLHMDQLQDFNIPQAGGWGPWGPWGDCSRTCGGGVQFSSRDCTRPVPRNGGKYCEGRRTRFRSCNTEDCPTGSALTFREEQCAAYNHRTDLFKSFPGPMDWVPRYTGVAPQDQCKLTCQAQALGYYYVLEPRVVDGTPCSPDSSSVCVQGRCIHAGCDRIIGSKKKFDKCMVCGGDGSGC

The next experiment concerns the target T5, MMP2 (human, UniProt P08253 110-660, limits assumed).
T5 sequence (looked up): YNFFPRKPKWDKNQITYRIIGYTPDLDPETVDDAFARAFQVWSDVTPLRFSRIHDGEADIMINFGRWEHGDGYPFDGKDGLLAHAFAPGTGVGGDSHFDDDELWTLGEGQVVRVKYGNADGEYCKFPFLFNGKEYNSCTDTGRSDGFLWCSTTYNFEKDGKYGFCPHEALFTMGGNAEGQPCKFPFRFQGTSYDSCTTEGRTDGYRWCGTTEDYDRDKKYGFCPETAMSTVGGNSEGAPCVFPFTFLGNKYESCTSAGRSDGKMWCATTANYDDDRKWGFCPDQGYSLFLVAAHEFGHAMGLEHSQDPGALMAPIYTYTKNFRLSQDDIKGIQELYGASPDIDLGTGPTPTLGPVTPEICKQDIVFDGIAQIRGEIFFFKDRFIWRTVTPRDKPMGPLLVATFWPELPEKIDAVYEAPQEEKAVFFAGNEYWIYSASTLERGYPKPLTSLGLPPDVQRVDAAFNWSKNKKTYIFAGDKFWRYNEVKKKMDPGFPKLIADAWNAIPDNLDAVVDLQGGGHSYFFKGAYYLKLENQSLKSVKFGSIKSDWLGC

In another experiment the target is T6, MMP1 (human, UniProt P03956 100-469, limits assumed).
T6 sequence (looked up): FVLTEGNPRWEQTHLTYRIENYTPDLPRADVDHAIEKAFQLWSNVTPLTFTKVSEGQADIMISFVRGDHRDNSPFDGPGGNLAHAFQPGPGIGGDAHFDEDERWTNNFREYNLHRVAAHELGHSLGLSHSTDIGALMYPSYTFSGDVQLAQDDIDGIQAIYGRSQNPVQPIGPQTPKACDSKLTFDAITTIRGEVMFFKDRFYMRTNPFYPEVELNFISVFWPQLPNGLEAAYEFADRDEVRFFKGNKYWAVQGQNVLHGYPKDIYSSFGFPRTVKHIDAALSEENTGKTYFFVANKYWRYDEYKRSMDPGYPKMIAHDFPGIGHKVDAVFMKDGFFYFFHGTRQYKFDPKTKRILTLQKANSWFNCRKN

Sequence of MMP3 (P08254 100-477 limits assumed): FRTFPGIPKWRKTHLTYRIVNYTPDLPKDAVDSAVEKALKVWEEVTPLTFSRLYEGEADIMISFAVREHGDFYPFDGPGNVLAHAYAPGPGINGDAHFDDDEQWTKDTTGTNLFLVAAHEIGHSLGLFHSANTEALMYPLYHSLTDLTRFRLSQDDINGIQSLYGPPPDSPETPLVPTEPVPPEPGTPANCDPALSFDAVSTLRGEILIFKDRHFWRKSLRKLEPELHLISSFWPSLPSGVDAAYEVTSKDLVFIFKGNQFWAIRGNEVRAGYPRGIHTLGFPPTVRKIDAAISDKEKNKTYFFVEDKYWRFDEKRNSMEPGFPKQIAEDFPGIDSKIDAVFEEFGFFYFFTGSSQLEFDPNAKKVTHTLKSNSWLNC
Sequence of MMP8 (P22894 101-467 limits assumed): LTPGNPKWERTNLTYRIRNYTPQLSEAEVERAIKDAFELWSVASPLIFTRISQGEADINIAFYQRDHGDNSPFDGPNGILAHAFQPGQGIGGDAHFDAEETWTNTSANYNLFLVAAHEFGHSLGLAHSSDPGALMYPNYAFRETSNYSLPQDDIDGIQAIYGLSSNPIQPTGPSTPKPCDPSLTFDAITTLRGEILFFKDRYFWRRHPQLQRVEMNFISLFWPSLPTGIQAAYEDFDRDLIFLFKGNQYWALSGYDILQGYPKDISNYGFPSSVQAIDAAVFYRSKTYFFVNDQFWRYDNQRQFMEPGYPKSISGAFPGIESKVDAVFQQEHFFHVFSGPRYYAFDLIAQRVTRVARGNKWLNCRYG
Sequence of MMP9 (P14780 107-707 limits assumed): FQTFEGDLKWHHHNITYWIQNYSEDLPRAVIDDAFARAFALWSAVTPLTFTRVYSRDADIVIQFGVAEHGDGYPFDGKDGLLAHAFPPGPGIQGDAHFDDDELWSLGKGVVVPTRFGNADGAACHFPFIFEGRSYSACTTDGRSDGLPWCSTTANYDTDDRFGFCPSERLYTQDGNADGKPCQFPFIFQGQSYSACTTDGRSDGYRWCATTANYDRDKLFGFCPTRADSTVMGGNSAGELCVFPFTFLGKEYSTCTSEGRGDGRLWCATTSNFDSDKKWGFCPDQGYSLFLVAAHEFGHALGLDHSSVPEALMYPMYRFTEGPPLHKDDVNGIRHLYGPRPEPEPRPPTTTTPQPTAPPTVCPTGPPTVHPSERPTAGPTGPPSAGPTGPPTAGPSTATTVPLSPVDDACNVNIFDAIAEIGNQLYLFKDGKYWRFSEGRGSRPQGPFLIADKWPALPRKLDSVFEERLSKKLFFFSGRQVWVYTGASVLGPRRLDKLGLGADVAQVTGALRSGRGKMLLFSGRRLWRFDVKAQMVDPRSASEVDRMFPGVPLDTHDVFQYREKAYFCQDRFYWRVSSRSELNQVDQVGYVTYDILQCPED

B1: Variant A2M, bait region SEQ ID NO 12 (other)
chain: SVSGKPQYMVLVPSLLHTETTEKGCVLLSYLNETVTVSASLESVRGNRSLFTDLEAENDVLHCVAFAVPKSSSNEEVMFLTVQVKGPTQEFKKRTTVMVKNEDSLVFVQTDKSIYKPGQTVKFRVVSMDENFHPLNELIPLVYIQDPKGNRIAQWQSFQLEGGLKQFSFPLSSEPFQGSYKVVVQKKSGGRTEHPFTVEEFVLPKFEVQVTVPKIITILEEEMNVSVCGLYTYGKPVPGHVTVSICRKYSDASDCHGEDSQAFCEKFSGQLNSHGCFYQQVKTKVFQLKRKEYEMKLHTEAQIQEEGTVVELTGRQSSEITRTITKLSFVKVDSHFRQGIPFFGQVRLVDGKGVPIPNKVIFIRGNEANYYSNATTDEHGLVQFSINTTNVMGTSLTVRVNYKDRSPCYGYQWVSEEHEEAHHTAYLVFSPSKSFVHLEPMSHELPCGHTQTVQAHYILNGGTLLGLKKLSFYYLIMAKGGIVRTGTHGLLVKQEDMKGHFSISIPVKSDIAPVARLLIYAVLPTGDVIGDSAKYDVENCLANKVDLSFSPSQSLPASHAHLRVTAAPQSVCALRAVDQSVLLMKPDAELSASSVYNLLPEKDLTGFPGPLNDQDDEDCINRHNVYINGITYTPVSSTNEKDMYSFLEDMGLKAFTNSKIRKPKMCPQLEHGPEGEGEGEIPENFEFRGVSEDLVVQISELEGRGSVEEPHTKLRKYFPETWIWDLVVVNSAGVAEVGVTVPDTITEWKAGAFCLSEDAGLGISSTASLRAFQPFFVELTMPYSVIRGEAFTLKATVLNYLPKCIRVSVQLEASPAFLAVPVEKEQAPHCICANGRQTVSWAVTPKSLGNVNFTVSAEALESQELCGTEVPSVPEHGRKDTVIKPLLVEPEGLEKETTFNSLLCPSGGEVSEELSLKLPPNVVEESARASVSVLGDILGSAMQNTQNLLQMPYGCGEQNMVLFAPNIYVLDYLNETQQLTPEIKSKAIGYLNTGYQRQLNYKHYDGSYSTFGERYGRNQGNTWLTAFVLKTFAQARAYIFIDEAHITQALIWLSQRQKDNGCFRSSGSLLNNAIKGGVEDEVTLSAYITIALLEIPLTVTHPVVRNALFCLESAWKTAQEGDHGSHVYTKALLAYAFALAGNQDKRKEVLKSLNEEAVKKDNSVHWERPQKPKAPVGHFYEPQAPSAEVEMTSYVLLAYLTAQPAPTSEDLTSATNIVKWITKQQNAQGGFSSTQDTVVALHALSKYGAATFTRTGKAAQVTIQSSGTFSSKFQVDNNNRLLLQQVSLPELPGEYSMKVTGEGCVYLQTSLKYNILPEKEEFPFALGVQTLPQTCDEPKAHTSFQISLSVSYTGSRSASNMAIVDVKMVSGFIPLKPTVKMLERSNHVSRTEVSSNHVLIYLDKVSNQTLSLFFTVLQDVPVRDLKPAIVKVYDYYETDEFAIAEYNAPCSKDLGNADYKDDDDKGASHHHHHH
As for B1, the “Protease Inhibition (% of WT)” value in the experiment with MMP3 was 182 % of WT; with ADAMTS5, 440 % of WT; in the experiment with MMP8, 54 % of WT; with MMP7, 160 % of WT; with Cathepsin G it was 105 % of WT; with MMP13, 72 % of WT. Also, the “Protease Inhibition (% of WT)” value with ADAMTS4 is 208 % of WT; with MMP2 it was 16 % of WT; with MMP1, 108 % of WT; with MMP9, 0 % of WT; with Elastase it was 117 % of WT.

B2: Variant A2M, bait region SEQ ID NO 13 (other)
chain: SVSGKPQYMVLVPSLLHTETTEKGCVLLSYLNETVTVSASLESVRGNRSLFTDLEAENDVLHCVAFAVPKSSSNEEVMFLTVQVKGPTQEFKKRTTVMVKNEDSLVFVQTDKSIYKPGQTVKFRVVSMDENFHPLNELIPLVYIQDPKGNRIAQWQSFQLEGGLKQFSFPLSSEPFQGSYKVVVQKKSGGRTEHPFTVEEFVLPKFEVQVTVPKIITILEEEMNVSVCGLYTYGKPVPGHVTVSICRKYSDASDCHGEDSQAFCEKFSGQLNSHGCFYQQVKTKVFQLKRKEYEMKLHTEAQIQEEGTVVELTGRQSSEITRTITKLSFVKVDSHFRQGIPFFGQVRLVDGKGVPIPNKVIFIRGNEANYYSNATTDEHGLVQFSINTTNVMGTSLTVRVNYKDRSPCYGYQWVSEEHEEAHHTAYLVFSPSKSFVHLEPMSHELPCGHTQTVQAHYILNGGTLLGLKKLSFYYLIMAKGGIVRTGTHGLLVKQEDMKGHFSISIPVKSDIAPVARLLIYAVLPTGDVIGDSAKYDVENCLANKVDLSFSPSQSLPASHAHLRVTAAPQSVCALRAVDQSVLLMKPDAELSASSVYNLLPEKDLTGFPGPLNDQDDEDCINRHNVYINGITYTPVSSTNEKDMYSFLEDMGLKAFTNSKIRKPKMCPQLEHGPRYLTAEGEGEGIPENFFGVSEDLVVQISELEGRGSVEEPHTKLRKYFPETWIWDLVVVNSAGVAEVGVTVPDTITEWKAGAFCLSEDAGLGISSTASLRAFQPFFVELTMPYSVIRGEAFTLKATVLNYLPKCIRVSVQLEASPAFLAVPVEKEQAPHCICANGRQTVSWAVTPKSLGNVNFTVSAEALESQELCGTEVPSVPEHGRKDTVIKPLLVEPEGLEKETTFNSLLCPSGGEVSEELSLKLPPNVVEESARASVSVLGDILGSAMQNTQNLLQMPYGCGEQNMVLFAPNIYVLDYLNETQQLTPEIKSKAIGYLNTGYQRQLNYKHYDGSYSTFGERYGRNQGNTWLTAFVLKTFAQARAYIFIDEAHITQALIWLSQRQKDNGCFRSSGSLLNNAIKGGVEDEVTLSAYITIALLEIPLTVTHPVVRNALFCLESAWKTAQEGDHGSHVYTKALLAYAFALAGNQDKRKEVLKSLNEEAVKKDNSVHWERPQKPKAPVGHFYEPQAPSAEVEMTSYVLLAYLTAQPAPTSEDLTSATNIVKWITKQQNAQGGFSSTQDTVVALHALSKYGAATFTRTGKAAQVTIQSSGTFSSKFQVDNNNRLLLQQVSLPELPGEYSMKVTGEGCVYLQTSLKYNILPEKEEFPFALGVQTLPQTCDEPKAHTSFQISLSVSYTGSRSASNMAIVDVKMVSGFIPLKPTVKMLERSNHVSRTEVSSNHVLIYLDKVSNQTLSLFFTVLQDVPVRDLKPAIVKVYDYYETDEFAIAEYNAPCSKDLGNADYKDDDDKGASHHHHHH
For the molecule B2, the “Protease Inhibition (% of WT)” value with MMP3 was 189 % of WT; in the experiment with ADAMTS5, 194 % of WT; with MMP8, 81 % of WT; in the experiment with MMP7, 128 % of WT; with Cathepsin G, 54 % of WT; in the experiment with MMP13 it was 76 % of WT. Moreover, the “Protease Inhibition (% of WT)” value is 290 % of WT with ADAMTS4; 65 % of WT in the experiment with MMP2; 91 % of WT in the experiment with MMP1; 71 % of WT with MMP9; 97 % of WT in the experiment with Elastase.

Source of the values: US20230250154A1 (CYTONICS, published 2023).
